The supplement of paper PMC9732359
± gives the uncertainty stated by the source.

Experiment: protein stability index of a GFP-peptide fusion (yeast GPS) (PSI 1-4); higher = more stable; sorted into four equal gates, so the index is relative within each strain
In short: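 Sequencing reads from sorted gates were used to score each peptide. The library consisted of tiled 17-residue yeast protein peptides fused downstream of GFP on a Cherry-expressing plasmid, pooled and carried in yeast. Mid-log cultures in leucine-free medium were split into four equal gates by GFP/Cherry ratio, and each gate's plasmids were PCR-amplified and Illumina-sequenced. The protein stability index adds up, over all gates, the read frequency multiplied by the gate number.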

## TLLKNLRKKLNFKLCQA [YJR042W/NUP85]
doa10∆
  protein stability index: 2.01 ± 0.12
pdr5∆
  protein stability index: 2.12 ± 0.097
san1∆
  protein stability index: 1.13 ± 0.23

## TLLPGLQDEVMNIKPVQ [RPS2]
doa10∆
  protein stability index: 1.21 ± 0.14
pdr5∆
  protein stability index: 1.35 ± 0.13
san1∆
  protein stability index: 1.18 ± 0.26
ubr1∆
  protein stability index: 1.09 ± 0.14

## TLLRLNELLDLTESQTE [RPN5]
doa10∆
  protein stability index: 2.39 ± 0.089
pdr5∆
  protein stability index: 2.18 ± 0.092
san1∆
  protein stability index: 2.71 ± 0.11
ubr1∆
  protein stability index: 2.74 ± 0.072

## TLLWNKNDKLIKIEDFV [SNF5]
doa10∆
  protein stability index: 1.8 ± 0.081
pdr5∆
  protein stability index: 1.74 ± 0.066
san1∆
  protein stability index: 1.55 ± 0.095
ubr1∆
  protein stability index: 1.83 ± 0.036

## TLPEKKQFDSIFNSNKA [SIR4]
doa10∆
  protein stability index: 2.71 ± 0.042
pdr5∆
  protein stability index: 2.77 ± 0.045
san1∆
  protein stability index: 2.82 ± 0.034
ubr1∆
  protein stability index: 2.8 ± 0.035

## TLRCSVVEACGNIVAEL [YCS4]
doa10∆
  protein stability index: 1.87 ± 0.095
pdr5∆
  protein stability index: 2.19 ± 0.093
san1∆
  protein stability index: 2.17 ± 0.15
ubr1∆
  protein stability index: 1.55 ± 0.062

## TLSNGLIASHYGVSFFT [BRR2]
doa10∆
  protein stability index: 2.74 ± 0.055
pdr5∆
  protein stability index: 2.84 ± 0.045
san1∆
  protein stability index: 2.39 ± 0.059
ubr1∆
  protein stability index: 2.83 ± 0.04

## TLSTHSTTTSVNGSTTA [SIN4]
doa10∆
  protein stability index: 2.79 ± 0.043
pdr5∆
  protein stability index: 3.04 ± 0.038
san1∆
  protein stability index: 3.114 ± 0.03
ubr1∆
  protein stability index: 2.93 ± 0.031

## TLVAQNLKQANNVAYGK [SMC4]
doa10∆
  protein stability index: 2.8 ± 0.1
pdr5∆
  protein stability index: 2.92 ± 0.089
san1∆
  protein stability index: 2.87 ± 0.062
ubr1∆
  protein stability index: 3 ± 0.067

## TLVGGGAKITPEMIKRS [RRP43]
pdr5∆
  protein stability index: 3.29 ± 0.29
san1∆
  protein stability index: 2.74 ± 0.22

## TMLELLNQLDGFETSKN [RPT6]
doa10∆
  protein stability index: 2.92 ± 0.13
pdr5∆
  protein stability index: 3.13 ± 0.11
san1∆
  protein stability index: 2.63 ± 0.2
ubr1∆
  protein stability index: 2.84 ± 0.087

## TNAGYTIELAGGGYFSA [FAS1]
doa10∆
  protein stability index: 2.39 ± 0.078
pdr5∆
  protein stability index: 2.28 ± 0.088
san1∆
  protein stability index: 1.72 ± 0.11
ubr1∆
  protein stability index: 2.09 ± 0.068

## TNDGIERYSDKYLKKRK [RPC31]
doa10∆
  protein stability index: 3.23 ± 0.13
pdr5∆
  protein stability index: 2.98 ± 0.18
san1∆
  protein stability index: 3.43 ± 0.15
ubr1∆
  protein stability index: 2.88 ± 0.091

## TNENGETDDNIETVMTQ [SRB4]
doa10∆
  protein stability index: 2.79 ± 0.099
pdr5∆
  protein stability index: 2.53 ± 0.076
san1∆
  protein stability index: 2.44 ± 0.089
ubr1∆
  protein stability index: 2.5 ± 0.074

## TNFNEITNTDETITTKR [SWP82]
doa10∆
  protein stability index: 3.13 ± 0.058
pdr5∆
  protein stability index: 3.25 ± 0.061
san1∆
  protein stability index: 3.08 ± 0.067
ubr1∆
  protein stability index: 3.32 ± 0.045

## TNIRRIIQDNISPRLVV [RRP46]
doa10∆
  protein stability index: 1.58 ± 0.037
pdr5∆
  protein stability index: 1.69 ± 0.041
san1∆
  protein stability index: 1.75 ± 0.07
ubr1∆
  protein stability index: 1.82 ± 0.03

## TNLYKLKEERAIEPETF [PUP3]
doa10∆
  protein stability index: 3.16 ± 0.12
pdr5∆
  protein stability index: 2.97 ± 0.13
san1∆
  protein stability index: 3.45 ± 0.066
ubr1∆
  protein stability index: 3.25 ± 0.097

## TNPKLKSEFDDLSLNIH [YMR129W/POM152]
doa10∆
  protein stability index: 2.96 ± 0.071
pdr5∆
  protein stability index: 3.14 ± 0.056
san1∆
  protein stability index: 3.02 ± 0.038
ubr1∆
  protein stability index: 3.17 ± 0.05

## TNQIFQSRRYNLRRHSD [SIN4]
doa10∆
  protein stability index: 2.94 ± 0.045
pdr5∆
  protein stability index: 3.18 ± 0.04
san1∆
  protein stability index: 3.04 ± 0.045
ubr1∆
  protein stability index: 3.08 ± 0.031

## TNQLVLLQKMLNLLNYQ [YML103C/NUP188]
doa10∆
  protein stability index: 1.99 ± 0.04
pdr5∆
  protein stability index: 1.43 ± 0.03
san1∆
  protein stability index: 1.29 ± 0.056
ubr1∆
  protein stability index: 1.43 ± 0.031

## TNSNNTPLQSQLNLNNL [PGD1]
doa10∆
  protein stability index: 3.01 ± 0.071
pdr5∆
  protein stability index: 3.01 ± 0.059
san1∆
  protein stability index: 3 ± 0.043
ubr1∆
  protein stability index: 3.05 ± 0.042

## TNTFEGSGNNNEIESRQ [SNU114]
pdr5∆
  protein stability index: 3.48 ± 0.17
san1∆
  protein stability index: 3.25 ± 0.11

## TNWDDHAIIIFGYPETI [YMR153W/NUP53]
doa10∆
  protein stability index: 2.45 ± 0.062
pdr5∆
  protein stability index: 2.63 ± 0.048
san1∆
  protein stability index: 2.3 ± 0.077
ubr1∆
  protein stability index: 2.71 ± 0.038

## TPAEMSRPATTTRNGFM [FAS2]
doa10∆
  protein stability index: 2.35 ± 0.038
pdr5∆
  protein stability index: 2.57 ± 0.041
san1∆
  protein stability index: 2.52 ± 0.05
ubr1∆
  protein stability index: 2.52 ± 0.042

## TPESVKPANASHAIRLG [RGR1]
doa10∆
  protein stability index: 2.63 ± 0.049
pdr5∆
  protein stability index: 2.42 ± 0.037
san1∆
  protein stability index: 2.98 ± 0.045
ubr1∆
  protein stability index: 2.47 ± 0.039

## TPFSFGTANNNSNTTNQ [YJL041W/NSP1]
doa10∆
  protein stability index: 3.25 ± 0.054
pdr5∆
  protein stability index: 3.21 ± 0.045
san1∆
  protein stability index: 3.13 ± 0.035
ubr1∆
  protein stability index: 3.09 ± 0.041

## TPGSVSLSAYNLTDEGY [PRP8]
doa10∆
  protein stability index: 2.23 ± 0.15
pdr5∆
  protein stability index: 2.5 ± 0.077
san1∆
  protein stability index: 2.3 ± 0.094
ubr1∆
  protein stability index: 1.96 ± 0.21

## TPLKARQREMAEEQTKL [YLR018C/POM34]
doa10∆
  protein stability index: 3.33 ± 0.08
pdr5∆
  protein stability index: 3.36 ± 0.093
san1∆
  protein stability index: 3.31 ± 0.053
ubr1∆
  protein stability index: 3.41 ± 0.056

## TPLQSQLNLNNLTPANI [PGD1]
doa10∆
  protein stability index: 2.98 ± 0.064
pdr5∆
  protein stability index: 3.11 ± 0.053
san1∆
  protein stability index: 2.99 ± 0.039
ubr1∆
  protein stability index: 3.01 ± 0.04

## TPLRDEVTDKNYYYLFD [PRP8]
doa10∆
  protein stability index: 2.98 ± 0.068
pdr5∆
  protein stability index: 2.55 ± 0.049
san1∆
  protein stability index: 3.03 ± 0.048
ubr1∆
  protein stability index: 3.11 ± 0.059

## TPMDESSYDLLFNESFI [SRP72]
doa10∆
  protein stability index: 3.07 ± 0.1
pdr5∆
  protein stability index: 2.98 ± 0.1
san1∆
  protein stability index: 2.7 ± 0.1
ubr1∆
  protein stability index: 3.12 ± 0.052

## TPRGNHWMGSSVSGSPR [YMR129W/POM152]
doa10∆
  protein stability index: 3.25 ± 0.077
pdr5∆
  protein stability index: 3.39 ± 0.077
san1∆
  protein stability index: 3.01 ± 0.053
ubr1∆
  protein stability index: 3.13 ± 0.064

## TPSTEESRAQNVFGQDN [SWI3]
doa10∆
  protein stability index: 2.58 ± 0.092
pdr5∆
  protein stability index: 2.77 ± 0.093
san1∆
  protein stability index: 3.35 ± 0.054
ubr1∆
  protein stability index: 2.55 ± 0.048

## TPVSHNDDLYGKVTDVR [RPL1A]
doa10∆
  protein stability index: 3.04 ± 0.091
pdr5∆
  protein stability index: 3.04 ± 0.096
san1∆
  protein stability index: 2.81 ± 0.067
ubr1∆
  protein stability index: 3.12 ± 0.084

## TPVVLATPIPEEVQQAQ [RPS5]
doa10∆
  protein stability index: 2.55 ± 0.099
pdr5∆
  protein stability index: 2.43 ± 0.16
san1∆
  protein stability index: 3.1 ± 0.1
ubr1∆
  protein stability index: 2.83 ± 0.13

## TPYSNESGLVNADLDVK [RPO21]
doa10∆
  protein stability index: 2.75 ± 0.054
pdr5∆
  protein stability index: 2.96 ± 0.073
san1∆
  protein stability index: 3.02 ± 0.056
ubr1∆
  protein stability index: 2.87 ± 0.046

## TQAKRIFLQQFLQELLK [SWI1]
doa10∆
  protein stability index: 2.62 ± 0.072
pdr5∆
  protein stability index: 2.42 ± 0.092
san1∆
  protein stability index: 2.43 ± 0.082
ubr1∆
  protein stability index: 2.1 ± 0.064

## TQKTELEIDNKDSVTEC [SIR4]
doa10∆
  protein stability index: 1.74 ± 0.061
pdr5∆
  protein stability index: 3.15 ± 0.12
san1∆
  protein stability index: 2.78 ± 0.14
ubr1∆
  protein stability index: 2.5 ± 0.085

## TQLDDLQHELMISIIKL [YML103C/NUP188]
pdr5∆
  protein stability index: 2.29 ± 0.1
san1∆
  protein stability index: 2.19 ± 0.28
ubr1∆
  protein stability index: 2.51 ± 0.093

## TQMDGFDQSTNVKVIMA [RPT3]
doa10∆
  protein stability index: 2.28 ± 0.062
pdr5∆
  protein stability index: 2.35 ± 0.06
san1∆
  protein stability index: 1.54 ± 0.077
ubr1∆
  protein stability index: 2.31 ± 0.061

## TQTFNGSIFTHETTFMT [YML031W/NDC1]
doa10∆
  protein stability index: 2.86 ± 0.063
pdr5∆
  protein stability index: 2.79 ± 0.066
san1∆
  protein stability index: 2.84 ± 0.035
ubr1∆
  protein stability index: 2.89 ± 0.047

## TQYKAGKASLFAQGKRR [RPL42A]
doa10∆
  protein stability index: 3.35 ± 0.089
pdr5∆
  protein stability index: 3.04 ± 0.07
san1∆
  protein stability index: 3.1 ± 0.097
ubr1∆
  protein stability index: 3.14 ± 0.1

## TRAKAKVEEMNNIIAAS [RPL36A]
pdr5∆
  protein stability index: 3.18 ± 0.14

## TRAQYLAFAKLVHSEYL [SRP68]
doa10∆
  protein stability index: 1.58 ± 0.08
pdr5∆
  protein stability index: 1.87 ± 0.063
san1∆
  protein stability index: 1.47 ± 0.094
ubr1∆
  protein stability index: 1.79 ± 0.052

## TRDVEPENLQVTSEKYP [BRR2]
doa10∆
  protein stability index: 2.75 ± 0.1
pdr5∆
  protein stability index: 3.35 ± 0.18
ubr1∆
  protein stability index: 3.13 ± 0.11

## TREKVLEDKLRAVLTPL [RRP46]
doa10∆
  protein stability index: 2.89 ± 0.17
pdr5∆
  protein stability index: 3.05 ± 0.11
san1∆
  protein stability index: 2.91 ± 0.19
ubr1∆
  protein stability index: 2.82 ± 0.11

## TRKILEILNECHDELKA [MED4]
doa10∆
  protein stability index: 2.04 ± 0.071
pdr5∆
  protein stability index: 2.5 ± 0.13
san1∆
  protein stability index: 2.44 ± 0.085
ubr1∆
  protein stability index: 2.71 ± 0.097

## TRLKSLLKPFHVKVNDK [SIR3]
doa10∆
  protein stability index: 2.65 ± 0.093
pdr5∆
  protein stability index: 2.96 ± 0.082
san1∆
  protein stability index: 2.79 ± 0.075
ubr1∆
  protein stability index: 2.81 ± 0.052

## TRLVQLREFRITHNTNI [GRR1]
doa10∆
  protein stability index: 1.23 ± 0.11
pdr5∆
  protein stability index: 1.16 ± 0.06
san1∆
  protein stability index: 1.04 ± 0.26
ubr1∆
  protein stability index: 1.38 ± 0.09

## TRRKRRQGRSNRRGMLA [SNF5]
doa10∆
  protein stability index: 2.51 ± 0.13
pdr5∆
  protein stability index: 2.71 ± 0.14
san1∆
  protein stability index: 2.86 ± 0.11
ubr1∆
  protein stability index: 2.99 ± 0.11
